Results: the supplement of paper PMC11316812
± gives the standard deviation of the averaged measurements.

Columns and labels:
[1] = tested on: MCF7; assay: percentage of EdU-negative (G0-arrested) nuclei per well, 72 h; higher = more G0 arrest; conditions: reference: sequence is the full UniProt precursor, the tested protein was the secreted form or ectodomain
[2] = tested on: hTERT-HMEC; assay: as above; conditions: reference: sequence is the full UniProt precursor, the tested protein was the secreted form or ectodomain
[3] = protein concentration 0.0225 µM
[4] = protein concentration 0.01477 µM
[5] = protein concentration 0.03125 µM
[6] = protein concentration 0.1477 µM
[7] = protein concentration 0.3125 µM
[8] = protein concentration 0.02075 µM
[9] = protein concentration 0.2075 µM
[10] = protein concentration 0.01025 µM
[11] = protein concentration 0.1025 µM
[12] = protein concentration 0.0220325 µM
[13] = protein concentration 0.220325 µM
[14] = protein concentration 0.00839 µM
[15] = protein concentration 0.0839 µM
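Further: secreted proteins added to cultured cells, EdU pulse at the end, nuclei found by Hoechst imaging, EdU status from nuclear versus surrounding ring intensity ratio, PBS as neutral control.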

## MAFRGWRPPPPPLLLLLLWVTGQAAPVAGLGSDAELQIERRFVPDECPRTVRSGDFVRYHYVGTFPDGQKFDSSYDRDSTFNVFVGKGQLITGMDQALVGMCVNERRFVKIPPKLAYGNEGVSGVIPPNSVLHFDVLLMDIWNSEDQVQIHTYFKPPSCPRTIQVSDFVRYHYNGTFLDGTLFDSSHNRMKTYDTYVGIGWLIPGMDKGLLGMCVGEKRIITIPPFLAYGEDGDGKDIPGQASLVFDVALLDLHNPKDSISIENKVVPENCERISQSGDFLRYHYNGTLLDGTLFDSSYSRNRTFDTYIGQGYVIPGMDEGLLGVCIGEKRRIVVPPHLGYGEEGRGNIPGSAVLVFDIHVIDFHNPSDSISITSHYKPPDCSVLSKKGDYLKYHYNASLLDGTLLDSTWNLGKTYNIVLGSGQVVLGMDMGLREMCVGEKRTVIIPPHLGYGEAGVDGEVPGSAVLVFDIELLELVAGLPEGYMFIWNGEVSPNLFEEIDKDGNGEVLLEEFSEYIHAQVASGKGKLAPGFDAELIVKNMFTNQDRNGDGKVTAEEFKLKDQEAKHDEL
[1]; [3]
  percentage of EdU-negative: 29.6 ± 1.2%
[1]; protein concentration 0.225 µM
  percentage of EdU-negative: 28.6 ± 3%
[2]; [3]
  percentage of EdU-negative: 5.15 ± 0.31%
[2]; protein concentration 0.225 µM
  percentage of EdU-negative: 25.4 ± 1.1%

## MAFSGSQAPYLSPAVPFSGTIQGGLQDGLQITVNGTVLSSSGTRFAVNFQTGFSGNDIAFHFNPRFEDGGYVVCNTRQNGSWGPEERKTHMPFQKGMPFDLCFLVQSSDFKVMVNGILFVQYFHRVPFHRVDTISVNGSVQLSYISFQNPRTVPVQPAFSTVPFSQPVCFPPRPRGRRQKPPGVWPANPAPITQTVIHTVQSAPGQMFSTPAIPPMMYPHPAYPMPFITTILGGLYPSKSILLSGTVLPSAQRFHINLCSGNHIAFHLNPRFDENAVVRNTQIDNSWGSEERSLPRKMPFVRGQSFSVWILCEAHCLKVAVDGQHLFEYYHRLRNLPTINRLEVGGDIQLTHVQT
[1]; [4]
  percentage of EdU-negative: 30.2 ± 1.1%
[1]; [5]
  percentage of EdU-negative: 26.3 ± 2.5%
[1]; [6]
  percentage of EdU-negative: 39.3 ± 0.83%
[1]; [7]
  percentage of EdU-negative: 26.3 ± 0.4%
[2]; [4]
  percentage of EdU-negative: 5.5 ± 0.22%
[2]; [5]
  percentage of EdU-negative: 4.97 ± 0.35%
[2]; [6]
  percentage of EdU-negative: 9.26 ± 0.15%
[2]; [7]
  percentage of EdU-negative: 4.66 ± 0.35%

## MAFVCLAIGCLYTFLISTTFGCTSSSDTEIKVNPPQDFEIVDPGYLGYLYLQWQPPLSLDHFKECTVEYELKYRNIGSETWKTIITKNLHYKDGFDLNKGIEAKIHTLLPWQCTNGSEVQSSWAETTYWISPQGIPETKVQDMDCVYYNWQYLLCSWKPGIGVLLDTNYNLFYWYEGLDHALQCVDYIKADGQNIGCRFPYLEASDYKDFYICVNGSSENKPIRSSYFTFQLQNIVKPLPPVYLTFTRESSCEIKLKWSIPLGPIPARCFDYEIEIREDDTTLVTATVENETYTLKTTNETRQLCFVVRSKVNIYCSDDGIWSEWSDKQCWEGEDLSKKTLLRFWLPFGFILILVIFVTGLLLRKPNTYPKMIPEFFCDT
[1]; [8]
  percentage of EdU-negative: 26.8 ± 0.36%
[1]; [9]
  percentage of EdU-negative: 29.3 ± 0.53%
[2]; [8]
  percentage of EdU-negative: 4.91 ± 0.34%
[2]; [9]
  percentage of EdU-negative: 9.86 ± 0.6%

## MAGGRETCLPLIGFILICLKMVASAKSAPEIPTIDQAYSKLSNSITVEWATVPGATSYLLTAEDGDTVIETTVANSPGTVTGLKAATWYEITIRSISAAGRSQASPPKQAKTVLAAPILEVSSPSSDSILVQWEAVYMAIAFSVSIMRANGLGSIWKENTTNTSLTFTSLEAGTLYTIKAYAWNANRIPGDDSTCNQRTSPRAPANIQVSFDSGALKASFSWARAEGAFNYTVMALSDSSELTCSTTFSSCTISSLQCGTEYLISVLASNDAGSSKSSSAMTLKTVACAPGRVTIQEDPPGHLSVAWSSVDLGDYYVVFVKSDDGLEVHCNTSLTQCNFLSECGFTYFISVFVYNKAGQSPLGDIFNYTTAPCCPSDINPVLVSSDRVEIVWSPVRGAELYETKAVDGYNMVECNDTTPACTLSALECDTKYNITVYSFNEVRGSNMSCTPQFITTAPCSPEIKNVSRDAFSMINVHWRSTNDDATYTVTAQGEKGLYQCSSTGESCTMRGLPCGSVFSVTAVAETQAGRSLPSYSVPLETVPCCPTGLTVTQITQSVINVSWTIGRVAQTHVAVLESHTGQSKCHTHQNHCLLGCITCGINYTVTLKAISATGLTADCSYQSYFSGACCPLGVKLYRLGPNGIRIYWQASRGSANYSTDLYGSKGIFTCTPSAGLSFCDVTEIPCGDVYTVMVSPVAKTGLKLTFCPKKIYSVTCSGSTLGMVIYRGKRNEE [Q5VTL7]
[1]; [10]
  percentage of EdU-negative: 25.3 ± 0.94%
[1]; [11]
  percentage of EdU-negative: 35.5 ± 1%
[2]; [10]
  percentage of EdU-negative: 4.97 ± 0.23%
[2]; [11]
  percentage of EdU-negative: 35.6 ± 3.5%

## MAGGRHRRVVGTLHLLLLVAALPWASRGVSPSASAWPEEKNYHQPAILNSSALRQIAEGTSISEMWQNDLQPLLIERYPGSPGSYAARQHIMQRIQRLQADWVLEIDTFLSQTPYGYRSFSNIISTLNPTAKRHLVLACHYDSKYFSHWNNRVFVGATDSAVPCAMMLELARALDKKLLSLKTVSDSKPDLSLQLIFFDGEEAFLHWSPQDSLYGSRHLAAKMASTPHPPGARGTSQLHGMDLLVLLDLIGAPNPTFPNFFPNSARWFERLQAIEHELHELGLLKDHSLEGRYFQNYSYGGVIQDDHIPFLRRGVPVLHLIPSPFPEVWHTMDDNEENLDESTIDNLNKILQVFVLEYLHL
[1]; [3]
  percentage of EdU-negative: 25.8 ± 0.78%
[1]; protein concentration 0.225 µM
  percentage of EdU-negative: 29.91 ± 0.092%
[2]; [3]
  percentage of EdU-negative: 5.21 ± 0.26%
[2]; protein concentration 0.225 µM
  percentage of EdU-negative: 4.97 ± 1.1%

## MAGLMTIVTSLLFLGVCAHHIIPTGSVVIPSPCCMFFVSKRIPENRVVSYQLSSRSTCLKAGVIFTTKKGQQFCGDPKQEWVQRYMKNLDAKQKKASPRARAVAVKGPVQRYPGNQTTC
[1]; [12]
  percentage of EdU-negative: 23.9 ± 1.6%
[1]; [13]
  percentage of EdU-negative: 24.7 ± 0.47%
[2]; [12]
  percentage of EdU-negative: 4.96 ± 0.78%
[2]; [13]
  percentage of EdU-negative: 5.694 ± 0.035%

## MAGLTAAAPRPGVLLLLLSILHPSRPGGVPGAIPGGVPGGVFYPGAGLGALGGGALGPGGKPLKPVPGGLAGAGLGAGLGAFPAVTFPGALVPGGVADAAAAYKAAKAGAGLGGVPGVGGLGVSAGAVVPQPGAGVKPGKVPGVGLPGVYPGGVLPGARFPGVGVLPGVPTGAGVKPKAPGVGGAFAGIPGVGPFGGPQPGVPLGYPIKAPKLPGGYGLPYTTGKLPYGYGPGGVAGAAGKAGYPTGTGVGPQAAAAAAAKAAAKFGAGAAGVLPGVGGAGVPGVPGAIPGIGGIAGVGTPAAAAAAAAAAKAAKYGAAAGLVPGGPGFGPGVVGVPGAGVPGVGVPGAGIPVVPGAGIPGAAVPGVVSPEAAAKAAAKAAKYGARPGVGVGGIPTYGVGAGGFPGFGVGVGGIPGVAGVPGVGGVPGVGGVPGVGISPEAQAAAAAKAAKYGAAGAGVLGGLVPGAPGAVPGVPGTGGVPGVGTPAAAAAKAAAKAAQFGLVPGVGVAPGVGVAPGVGVAPGVGLAPGVGVAPGVGVAPGVGVAPGIGPGGVAAAAKSAAKVAAKAQLRAAAGLGAGIPGLGVGVGVPGLGVGAGVPGLGVGAGVPGFGAGADEGVRRSLSPELREGDPSSSQHLPSTPSSPRVPGALAAAKAAKYGAAVPGVLGGLGALGGVGIPGGVVGAGPAAAAAAAKAAAKAAQFGLVGAAGLGGLGVGGLGVPGVGGLGGIPPAAAAKAAKYGAAGLGGVLGGAGQFPLGGVAARPGFGLSPIFPGGACLGKACGRKRK [F8WAH6]
[1]; [14]
  percentage of EdU-negative: 26.3 ± 0.31%
[1]; [15]
  percentage of EdU-negative: 25.1 ± 0.57%
[2]; [14]
  percentage of EdU-negative: 4.54 ± 0.69%
[2]; [15]
  percentage of EdU-negative: 6.95 ± 0.57%
